Laboratory results reported in patent US7892803B2, “Gene and uses therefor to modify pasture qualities of crops” (Commonwealth Scientific and Industrial Research Organisation, priority 2001, dated 2011).

Tests used:
[1] = LAR enzyme activity of recombinant LAR protein in E. coli extracts (radio-HPLC); type: biochemical; details: bacterial protein extracts after induction, HPLC system IIa
Description: LAR was assayed essentially as described by Tanner and Kristiansen (1993). The standard assay contained in total volume of 100 μl assay buffer containing 10 mg glycerol, 10 μmol NaPi, 0.5 μmol NADPH, 0.1 μmol DDT, all adjusted to pH7 with NaOH, 0.25 nmol [^3H]-3,4-cis-leucocyanidin (1 μCi), or other suitable flavan-3,4-diol substrate (Table 2), and enzyme extract. The assay was initiated by the addition of an appropriate amount of enzyme extract and incubated at 30° C. for 30 min. The incubation was terminated by extraction with 0.2 ml ethyl acetate containing 10 nmol of unlabelled catechin as carrier. The ethyl acetate extracts were dried under a stream of nitrogen at room temperature. The residue was dissolved in 100 μl of water and analyzed by radio-HPLC using system II (see above and Table 2). In each radio-chromatogram of the assay mixtures derived from the leaf extracts referred to herein, only the substrate, 3-4-cis-leucocyanidin, or the product, catechin were detected.
The complete amino acid coding sequence of the LAR cDNA was introduced into the BamHI site of the pET3a expression vector to express the LAR382 polypeptide containing the 14 amino acid N-terminal T7 Tag. The resultant expression construct was then introduced into E. coli strain Rosetta(DE3) RARE/pLysS.
A truncated form of LAR comprising amino acids 1-317 was also introduced into the BamHI and HindIII sites of pQE30 expression vector to express the LAR317 polypeptide containing the 10 amino acid N-terminal RGS-6×His epitope. The resultant expression construct was then introduced into E. coli strain XL1 Blue.
Expression of the full length recombinant LAR382 protein, or the truncated form LAR317, was induced as described in the preceding Example. Bacterial protein extracts were assayed for LAR enzyme activity, essentially as described in Example 1.

[2] = Storage stability of partially purified LAR enzyme preparation; type: physicochemical; details: 2,360 fold purified concentrate mixed with equal volume of glycerol, stored at −20 C
Description: Fractions with LAR activity were combined and then concentrated to a final volume of 1 ml by applying nitrogen over a YM10 membrane (Amicon). The concentrate was mixed with an equal volume of glycerol and stored at −20 C.
The final yield of enzyme activity was 8.7% and purification was 2,360 fold.

| Molecule | LAR enzyme activity (reduction of leucocyanidin to catechin) [1] | LAR enzyme activity (reduction of leucocyanidin to catechin) ([1]; listed as pET LAR382) | LAR enzyme activity (reduction of leucocyanidin to catechin) ([1]; listed as pET LAR317) | stability of LAR enzyme activity on storage [2] |
| --- | --- | --- | --- | --- |
| LAR382: Full length recombinant D. uncinatum LAR polypeptide (SEQ ID NO: 29) with N-terminal T7 Tag, expressed in E. coli from pET3a (protein, listed as Desmodium uncinatum, N-terminal T7 tag) MTVSGAIPSMTKNRTLVVGGTGFIGQFITKASLGFGYPTFLLVRPGPVSPSKAVIIKTFQDKGAKVIYGVINDKECMEKILKEYEIDVVISLVGGARLLDQLTLLEAIKSVKTIKRFLPSEFGHDVDRTDPVEPGLTMYKEKRLVRRAVEEYGIPFTNICCNSIASWPYYDNCHPSQVPPPMDQFQIYGDGNTKAYFIDGNDIGKFTMKTIDDIRTLNKNVHFRPSSNCYSINELASLWEKKIGRTLPRFTVTADKLLAHAAENIIPESIVSSFTHDIFINGCQVNFSIDEHSDVEIDTLYPDEKFRSLDDCYEDFVPMVHDKIHAGKSGEIKIKDGKPLVQTGTIEEINKDIKTLVETQPNEEIKKDMKALVEAVPISAMG | catalysed the reduction of [4-^3H]-2,3-trans-3,4-cis-leucocyanidin | LAR activity sufficient to convert all of the leucocyanidin substrate into catechin |  |  |
| LAR317: Truncated recombinant LAR, amino acids 1-317 of SEQ ID NO: 29, with N-terminal RGS-6×His epitope, expressed in E. coli (protein, listed as Desmodium uncinatum, N-terminal RGS-6xHis tag) MTVSGAIPSMTKNRTLVVGGTGFIGQFITKASLGFGYPTFLLVRPGPVSPSKAVIIKTFQDKGAKVIYGVINDKECMEKILKEYEIDVVISLVGGARLLDQLTLLEAIKSVKTIKRFLPSEFGHDVDRTDPVEPGLTMYKEKRLVRRAVEEYGIPFTNICCNSIASWPYYDNCHPSQVPPPMDQFQIYGDGNTKAYFIDGNDIGKFTMKTIDDIRTLNKNVHFRPSSNCYSINELASLWEKKIGRTLPRFTVTADKLLAHAAENIIPESIVSSFTHDIFINGCQVNFSIDEHSDVEIDTLYPDEKFRSLDDCYEDFV | catalysed the reduction of [4-^3H]-2,3-trans-3,4-cis-leucocyanidin |  | LAR activity sufficient to convert all of the leucocyanidin substrate into catechin |  |
| LAR: Leucoanthocyanidin reductase enzyme partially purified 2,360 fold from young leaves of Desmodium uncinatum (protein, listed as Desmodium uncinatum) MTVSGAIPSMTKNRTLVVGGTGFIGQFITKASLGFGYPTFLLVRPGPVSPSKAVIIKTFQDKGAKVIYGVINDKECMEKILKEYEIDVVISLVGGARLLDQLTLLEAIKSVKTIKRFLPSEFGHDVDRTDPVEPGLTMYKEKRLVRRAVEEYGIPFTNICCNSIASWPYYDNCHPSQVPPPMDQFQIYGDGNTKAYFIDGNDIGKFTMKTIDDIRTLNKNVHFRPSSNCYSINELASLWEKKIGRTLPRFTVTADKLLAHAAENIIPESIVSSFTHDIFINGCQVNFSIDEHSDVEIDTLYPDEKFRSLDDCYEDFVPMVHDKIHAGKSGEIKIKDGKPLVQTGTIEEINKDIKTLVETQPNEEIKKDMKALVEAVPISAMG |  |  |  | stable for up to one year |
